Data set [1] concerns the molecule itself. Put plainly: native gel or EMSA; native protein PAGE, 20% acrylamide homogeneous gel, PhastSystem, acidic buffer agarose strips, proteins migrating towards the negative electrode; equinatoxin II (19.82 kDa) as size reference. In general terms: In EMSA bound probe runs differently from free probe, usually more slowly.
For the next data set, the target named is T1, Alba1 (Ape10b1) (Aeropyrum pernix, UniProt Q9YAW1 1-94).
T1 sequence: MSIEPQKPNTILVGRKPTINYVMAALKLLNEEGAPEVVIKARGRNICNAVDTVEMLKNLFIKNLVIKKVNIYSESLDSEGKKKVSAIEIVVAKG
Put plainly: SPR; 6.0 uM protein; saturable, fast association; ITC: 50 mM NaH2PO4, pH 7.0, 25 C; SPR: 50 mM NaH2PO4, 150 mM NaCl, 0.005% P20, pH 7.0, 25 C; UV melting: 50 mM NaH2PO4, pH 7.0; EMSA: 0.8% agarose, 1 h at room. Particulars: protein: recombinant; tags: His-tag (pQE-30UA); chain copies: 2; label: 5'-biotin on one strand (S1); blunt. (In general: Surface plasmon resonance follows binding to a sensor surface in real time, without labels.)

A further data set has as its target T2, Alba2 (Ape10b2) (Aeropyrum pernix, UniProt Q9YAX2 1-102).
T2 sequence: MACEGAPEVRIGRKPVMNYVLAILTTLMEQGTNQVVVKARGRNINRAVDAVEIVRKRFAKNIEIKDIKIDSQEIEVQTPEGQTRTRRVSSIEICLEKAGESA
The experiment in a line: SPR; 6.0 uM protein; slower association and dissociation; ITC: 50 mM NaH2PO4, pH 7.0, 25 C; SPR: 50 mM NaH2PO4, 150 mM NaCl, 0.005% P20, pH 7.0, 25 C; UV melting: 50 mM NaH2PO4, pH 7.0; EMSA: 0.8% agarose, 1 h at room. The note with it: protein: recombinant; tags: His-tag (pETDuet-1); chain copies: 2; label: 5'-biotin on one strand (S1); blunt.

Data set [2] deals with T3, Alba1 (Ape10b1);Alba2 (Ape10b2) (Aeropyrum pernix;Aeropyrum pernix, UniProt Q9YAW1;Q9YAX2 1-94;1-102, |).
T3 sequence 1: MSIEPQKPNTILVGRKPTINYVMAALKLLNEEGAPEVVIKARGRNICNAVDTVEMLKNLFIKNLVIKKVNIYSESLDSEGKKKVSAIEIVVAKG
T3 sequence 2: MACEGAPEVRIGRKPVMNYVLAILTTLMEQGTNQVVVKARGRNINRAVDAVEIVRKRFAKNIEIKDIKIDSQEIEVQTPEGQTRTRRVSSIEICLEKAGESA
The experiment in a line: SPR; 6.0 uM equimolar complex; biphasic; ITC: 50 mM NaH2PO4, pH 7.0, 25 C; SPR: 50 mM NaH2PO4, 150 mM NaCl, 0.005% P20, pH 7.0, 25 C; UV melting: 50 mM NaH2PO4, pH 7.0; EMSA: 0.8% agarose, 1 h at room. The note with it: protein: recombinant;recombinant; tags: His-tag (pQE-30UA); copies: 1;1; label: 5'-biotin on one strand (S1); blunt.

This note sets out measurements from publication PMC3585288, “Interactions of Archaeal Chromatin Proteins Alba1 and Alba2 with Nucleic Acids” (PLoS ONE, 2013).

Broadly, the stoichiometry N is a count of units in the complex or per binding partner.

B1: Alba1 protein from Aeropyrum pernix (APE1832.1) (natural protein, UniProt Q9YAW1 1-94, looked up)
chain: MSIEPQKPNTILVGRKPTINYVMAALKLLNEEGAPEVVIKARGRNICNAVDTVEMLKNLFIKNLVIKKVNIYSESLDSEGKKKVSAIEIVVAKG
notes: Alba1 (Ape10b1), Aeropyrum pernix, locus APE1832.1; 94 amino-acid residues (10,336 Da); His-tag is removable by thrombin; also called Ape10b1; APA1
Consider B1, for which the “stoichiometry N” value in data set [1] is 2.

B2: SPRspecAP (dsDNA)
DNA 1: CCCCCCCGTGAAAGCCTAGACAGCGAGGCCCCCCC
DNA 2: GGGGGGGCCTCGCTGTCTAGGCTTTCACGGGGGGG
Take B2: the binding result (with Alba1 (Ape10b1); with Alba2 (Ape10b2); in data set [2]) was “binds” each time.

B3: Alba2 protein from Aeropyrum pernix (APE1823) (natural protein)
chain: MACEGAPEVRIGRKPVMNYVLAILTTLMEQGTNQVVVKARGRNINRAVDAVEIVRKRFAKNIEIKDIKIDSQEIEVQTPEGQTRTRRVSSIEICLEKAGESA
notes: Alba2 (Ape10b2), Aeropyrum pernix, locus APE1823; 102 amino-acid residues (11,380 Da); His-tag is removable by thrombin; Co-expression with untagged Alba1 may leave Alba1 in the Alba2 preparation (my surmise); also called Ape10b2; APA2
For B3, in data set [1], the “stoichiometry N” value turned out to be 2.
